From patent US20130171179A1 (OREGON HEALTH AND SCIENCE UNIVERSITY, published 2013)
Primed or numbered codes have the meaning given here. Ends that are not written are not given here. FITC′ = fluorescein isothiocyanate label

Tests used:
[1] = molecular target: T1, recombinant IAg7 (rIAg7; RTL450), single polypeptide comprising the β1 and α1 domains of the MHC class II … (mouse); assay: disulfide capture of FITC-labeled peptides, SDS-PAGE
T1 construct: no peptide attached; Internal C17-C79 disulfide bond; also called empty rIAg7; rIA7
T1 chain: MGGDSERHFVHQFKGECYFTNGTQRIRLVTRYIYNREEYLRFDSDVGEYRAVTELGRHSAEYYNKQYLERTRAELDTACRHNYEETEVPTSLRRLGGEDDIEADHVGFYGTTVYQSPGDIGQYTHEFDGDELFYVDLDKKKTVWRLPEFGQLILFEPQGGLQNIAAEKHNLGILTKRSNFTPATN

[2] = molecular target: T1, recombinant IAg7 (rIAg7; RTL450), …; assay: disulfide capture of amino-terminal truncated peptides, SDS-PAGE
Description: (§1) A mixture of 10:1 peptide:rIAg7 at 200 μg/ml, 100 mM NaPO₄ pH 6.5; 150 mM NaCl; 0.05% SDS; and 0.01% NaN₃ was produced. After inspecting the mixture for any precipitation, reactions were incubated at 37° C. for 60 hours. Analysis of ability of redox capture conditions to facilitate peptide capture by MHC was performed as follows: 20 μl aliquots at various time points were mixed with an equal volume of 2× electrophoresis sample buffer (1% glycerol, 500 mM Tris, 0.2% SDS, and bromophenol blue at pH 8.0). Samples were then placed on ice for 30 minutes, heated at 90° C. for 6 minutes with or without β-mercaptoethanol and separated by 10-20% SDS-PAGE followed by Coomassie Blue staining to visualize the proteins. Proteins were quantified by densitometry scanning using Molecular Imager FX 5 and Quantity One software (Bio-Rad, Hercules, Calif.).
Coomassie stained bands (29 kD and 31 kD, as indicated) were quantified to determine an initial rate of capture (FIG. 3). Insulin B:16-23 peptide (FITC-[…]; SEQ ID NO: 1) and rIAg7 were mixed (10:1, peptide:rIAg7) in 100 mM NaPO₄, pH 6.5, 150 mM NaCl, 0.05% SDS, and 0.01% NaN₃ and allowed to incubate for the indicated time.

[3] = molecular target: T1, recombinant IAg7 (rIAg7; RTL450), …; assay: disulfide capture, Coomassie stained SDS-PAGE
Description: as §1
A recombinant form of IAg7 (rIAg7) comprising the β1 and α1 domains of the MHC class II molecule expressed as a single polypeptide (rIAg7; RTL450-series) was designed. IAg7-derived constructs are readily produced in E. coli, are well-behaved in aqueous buffers, and bind antigenic peptides. All MHC class II β1 domains comprise a disulfide bond between cysteine 17 and cysteine 79. Insulin B:9-23 is an antigenic peptide that binds IAg7 and comprises a cysteine residue at position 19. […]

[4] = molecular target: T2, recombinant murine I-A^b (β1α1 RTL) (mouse); assay: disulfide capture, SDS-PAGE
T2 construct: Single-chain two-domain MHC class II polypeptide, with no peptide attached before loading; also called rI-A^b RTL; rIAb
T2 chain: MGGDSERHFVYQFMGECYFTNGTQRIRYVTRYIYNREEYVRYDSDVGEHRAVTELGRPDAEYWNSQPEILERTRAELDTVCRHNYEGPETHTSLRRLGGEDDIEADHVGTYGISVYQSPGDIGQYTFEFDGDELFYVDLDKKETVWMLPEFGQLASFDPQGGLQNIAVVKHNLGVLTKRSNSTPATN

[5] = molecular target: T3, recombinant human DR2 (β1α1 RTL) (human); assay: disulfide capture, SDS-PAGE
T3 construct: Single-chain two-domain MHC class II polypeptide, with no peptide attached before loading; also called rDR2; DR2 RTL
T3 chain: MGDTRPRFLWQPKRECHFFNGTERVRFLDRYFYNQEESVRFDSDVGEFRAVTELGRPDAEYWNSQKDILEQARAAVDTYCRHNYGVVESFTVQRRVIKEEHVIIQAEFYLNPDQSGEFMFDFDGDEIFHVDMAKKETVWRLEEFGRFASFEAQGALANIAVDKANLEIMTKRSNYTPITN

B1: FITC-labeled insulin B:9-23 peptide, wild-type sequence (C19) (peptide)
peptide: {FITC′}-SHLVEALYLVCGERG
notes: also called Wild-type insulin B:9-23 peptide (C19); amino-terminal FITC-coupled B:9-23
Question: Does B1 bind [1]?
Answer: binds

B2: FITC-labeled 8-mer insulin B:16-23 peptide (peptide)
peptide: {FITC′}-YLVCGERG
notes: The C-terminal 8 amino acids of B:9-23
Question: Does B2 bind [2]?
Answer: binds

B3: insulin B:9-23 peptide (peptide)
peptide: SHLVEALYLVCGERG
notes: Synthetic peptide; also called Insulin B:9-23 (WT); InsB:9-23
Question: Does B3 bind [3]?
Answer: binds

B4: FITC-labeled insulin B:9-23 C20 variant (cysteine moved to position 20) (peptide)
peptide: {FITC′}-SHLVEALYLVACERG
Question: Does B4 bind [1]?
Answer: binds

B5: S45C mutated mouse MOG35-55 (peptide)
peptide: MEVGWYRPPFCRVVHLYRNGK
notes: also called mMOG35-55 S45C variant; mouse MOG35-55 S45C variant
Question: Does B5 bind [4]?
Answer: binds

B6: MOG35-55 P43C variant (peptide)
peptide: MEVGWYRSCFSRVVHLYRNGK
notes: also called hMOG35-55 P43C variant
Question: Does B6 bind [5]?
Answer: binds

B7: MOG35-55 S42C variant (peptide)
peptide: MEVGWYRCPFSRVVHLYRNGK
notes: also called hMOG35-55 S42C variant
Question: Does B7 bind [5]?
Answer: binds

B8: FITC-labeled insulin B:9-23 C18 variant (cysteine moved to position 18) (peptide)
peptide: {FITC′}-SHLVEALYLCAGERG
Question: Does B8 bind [1]?
Answer: binds
